The supplement of paper PMC7125110
± gives the standard error. Variants at the floor of the assay were thinned out.

B1: glmS ribozyme (parent)
chain: AUAAAAGCGCCAGAACUACAGAAAUGUAGUUGACGAGGAGGAGGUUUAUCGAAUUUUCGGCGGAUGCCUCCAAA

Variants of: B1
Assay: self-cleavage kobs at 10000 uM GlcN6P; higher = faster cleavage; RNA array
Details: with glucosamine-6-phosphate
In short: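 Barcoded ribozyme variants, transcribed in situ by E. coli RNA polymerase on sequenced MiSeq chips, were followed via a hybridised Cy3 probe at 37 °C. Glucosamine-6-phosphate ranged from 40 μM to 10 mM in HEPES/KCl/Mg(OAc)2 buffer. kobs came from decay fits to per-tile medians, and kcat and KM from weighted Michaelis–Menten fits.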

Variant | self-cleavage kobs at 10000 uM GlcN6P
AUAAAAGCGCCAGGACUACAGAAAUGUAGUUGACGAGGAGGAGCUUUAUCGAAUUUUCGGCGGAUGUCUCCAAA | 0.00278 ± 0.0013 s⁻¹
AUAAAAGCGCCAGGACUACAGAAAUGUAGUUAACGAGGAGGAGGUUUAUCGGAUUUUCGGCGGAUGCCUCCAAA | 0.000409 ± 0.00011 s⁻¹
AUAAAAGCGCCAAAACUACAGAAAUGUAGUUGACGAGGAGGAGUUUUAUCGAAUUUUCGGCUGAUGCCUCGAAA | < 1e-05 s⁻¹
AUAAAAGCGCCUGAACUACAGAAAUGUAGGUGACGUGGAGUAGGUUUAUCGUAUUUUCGGCGGAUGCCUCCAAA | < 1e-05 s⁻¹
AUAAAAGCGCCAGCACUACAGACAUGUAGUUGACGAGGAGGAGGUUUAUCGAAUUUUCGGCGGAUGCCUCCAAA | 0.0057 ± 0.0012 s⁻¹
AUAAAAGCGCCACGACUACAGAAAUGUAGUUGACGAGGAGGAGGUUUAUCGAAUUUUCGGCGGAUGCCGCCAAA | 3.8e-05 ± 1.6e-05 s⁻¹
AUAAAAGCGCCUGAACUACAGAAAUGUACUUGACGAGGAGAAGGUUUAUCGAAUUUUCGGCGGAUGCCUCCAAA | 0.000129 ± 4.9e-05 s⁻¹
AUAAAAGCGCCACAACUACAGAAAUGUAGUUGGCGAGGAGUAGGUUUAUCGAAUUUUCGGCGGAUGCCUCCAAA | < 1e-05 s⁻¹
AUAAAAGCGCCAAAUCUACAGAAAUGUAGUUGACGAGGAGGAGGUUUAUCGAGUUUUCGUCGGAUGCCUCCAAA | < 1e-05 s⁻¹
AUAAAAGCGCCAAAACUACAGAAAUGUAGUUGACGAGGAGGAGGUUUAUCGAAUUUUUGGCGGAUGCCUCCAAA | 8.94e-05 ± 8.9e-06 s⁻¹
AUAAAAGCGCCAGUGCUACAGAAAUGUAGUUGACGAGGAGUAGGUUUAUCGAAUUUUCGGCGGAUGCCUCCAAA | 0.000237 ± 5.3e-05 s⁻¹
AUAAAAGCGCCUGAACUACAGAAAUGUAGUCGACGAGGAGGAGGUUUAUCGAAUUUUCGGCGGAUGGCUCCAAA | 0.000267 ± 5.5e-05 s⁻¹
AUAAAAGCGCCAGCACUACAGAAAUGUAGUUGUCGUGGAGGAGGUUUAUCGAAUUUUCGUCCGAUGCCUCCAAA | < 1e-05 s⁻¹
AUAAAAGCGCCUGAACUACAGAAAUGUAGUUGACGACGAGGAGGAUUUUCGAAUUUUCGGCGGAUGCUUCCAAA | < 1e-05 s⁻¹
AUAAAAGCGCCAGUACUACAGAAAUGUAGUUGACGACGAGGAGGUUUAUCGAAUUUUCGGCGGCUGCCUCCAAA | < 1e-05 s⁻¹
AUAAAAGCGCCAGUACUACAGAAAUGUAGUUGACAAGGAGGAGGUUUGUCGAACUUUCGGCGGAUGCCUGCAAA | < 1e-05 s⁻¹
AUAAAAGCGCCAUAACUACAGAAAUGUAGUUGACGAGGAGGAGGUUUAUCGAAUUUUUGGCGGAUGCCUCCAAA | 6.77e-05 ± 6.2e-06 s⁻¹
AUAAAAGCGCCAAAACUACAGAAAUGUAGUUGACGAGGAGGAGGUUUAUCGAAUUUGCGGCGGAUGCCUUCAAA | 3.53e-05 ± 1.7e-05 s⁻¹
AUAAAAGCGCCAGCACUACAGAAAUGUAGUUGACGAGGAAGAGGUUCAUCGAAUUUUCGGCGGAUGCCUCCAAA | 0.000375 ± 7e-05 s⁻¹

Variant | self-cleavage kobs at 10000 uM GlcN6P
AUAAAAGCGCCAAAACUACAGAAAUGUAGUUGACGAGGAGGAGGUUUAUCGAAUUUGCGGCGGAUGCCUCCAAA | 4.69e-05 ± 8.8e-06 s⁻¹
AUAAAAGCGCCUUAACUACAGAAAUGUAGUCGACGAGGAAGAGAUUUAUCGAAUUAUCGGCGGAUGCCUCCAAA | < 1e-05 s⁻¹
AUAAAAGCGCCAUAACUACAGAAAUGUAGUUGACGAGGAGGAGCUUUAUCGAAUUCUCGGCGGAUGCCUCCAAA | < 1e-05 s⁻¹
AUAAAAGCGCCAUAACUACAGAAAUGUAGUUGACGAGGAGGAGGUUUAUCGAAUUUUCGGGGGAUGCGUCCAAA | < 1e-05 s⁻¹
AUAAAAGCGCCACAACUACAGAAAUGUAGUUGACGAGUAGGAGGUUUUUAGAAUUUUCGGCGGAUGCCUCCAAA | < 1e-05 s⁻¹
AUAAAAGCGCCAGUACUACAGAAAUGUAGUCGACGAGGAGGAGGUCUAUCGAAUUUUCGGCGGAUGCCUCCAAA | 0.00011 ± 1.7e-05 s⁻¹
AUAAAAGCGCCAGACCUACAGAAAUGUAGUUGACGAGGGGGAGGUUUAUCGGAUUUUCGGCGGAUGCCUCCAAA | 0.000495 ± 8.8e-05 s⁻¹
AUAAAAGCGCCAGUACUACAGAAAUGUAGUUGACGAGGAGGGGGUUUAUCGAAUUUUAGGCGGAUGCCUCCAAA | 0.000409 ± 0.00014 s⁻¹
AUAAAAGCGCCAUAACUACAGAAAUGUAGUUGACGAGGAGGAGGUUUAUGGAAUUUUCGGCGGAUGCCUUCAAA | 5.49e-05 ± 1.2e-05 s⁻¹
AUAAAAGCGCCACAACUACAGAAAUGUAGUUGACGAGGAGGAGGUUUAACGAAUUUUCGUAGGAUGCCUCCAAA | < 1e-05 s⁻¹
AUAAAAGCGCCAGGUCUACAGAAAUGUAGUUAACGAGGAGGAGGUUUAUCGAAUUUUCGGCGGAUGCCUCCAAA | 0.00264 ± 0.00069 s⁻¹
AUAAAAGCGCCAGCACUACAGAAAUGUAGUUGACGAGUAGGAGGUUUAUCGAAUUUUCGGCGUAUGCAUCCAAA | 4.08e-05 ± 1.9e-05 s⁻¹
AUAAAAGCGCCACAACUACAGAAAUGUAGUCGACGAGGCGGAGGUUUAUCGAAUUUUCGGCGGAUGCCUCCAAA | 2.61e-05 ± 1.3e-05 s⁻¹
AUAAAAGCGCCACAACUACAGAAAUGUAGUUGACUAGGAGGAGGUUCCUCGAAUUUUCGGGGGAUGCCUUCAAA | < 1e-05 s⁻¹
AUAAAAGCGCCAGCACUACAGAAAUGUAGUUGACGAGGAGGAGGUUUAUCGUCUUUUCGGCGGAUGCCUCCAAA | < 1e-05 s⁻¹
AUAAAAGCGCCAGCACUACAGAAAUGUAGUUGACGAGGAGGAGGCUUAUCGAAUUUUCGGCGGGUACCUCCAAA | 0.000542 ± 9.2e-05 s⁻¹
AUAAAAGCGCCAGCACUACAGAAAUGUAGUUGACGAAGAGGAGGAUUAAAGAAUUUUUGGCGGAUGCCUCCAAA | < 1e-05 s⁻¹
AUAAAAGCGCCAGUACUACAGAAAUGUAGUUGACGAGGAGGGGGUUUAUCGAAUUUUCGGGGGAUGCCUCCAAA | < 1e-05 s⁻¹
